These results are taken from patent US20030100089A1.

In series [1] the target is porcine pancreatic elastase (PPE) (porcine) (UniProt P00772). As to the kind of experiment: cell-based or functional assay.
A further series concerns the target T1, MMP-7.
T1 sequence (P09237 95-267, species assumed, looked up): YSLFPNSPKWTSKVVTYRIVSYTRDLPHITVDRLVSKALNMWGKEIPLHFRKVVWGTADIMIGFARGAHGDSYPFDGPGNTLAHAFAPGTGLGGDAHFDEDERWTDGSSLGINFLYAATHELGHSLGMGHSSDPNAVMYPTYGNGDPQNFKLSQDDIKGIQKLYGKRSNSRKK
In words: cell-based or functional assay.

A further series deals with Cathepsin D. In words: cell-based or functional assay.
The target in another series is T2, Cathepsin G.
T2 sequence (P08311 21-244, species assumed, looked up): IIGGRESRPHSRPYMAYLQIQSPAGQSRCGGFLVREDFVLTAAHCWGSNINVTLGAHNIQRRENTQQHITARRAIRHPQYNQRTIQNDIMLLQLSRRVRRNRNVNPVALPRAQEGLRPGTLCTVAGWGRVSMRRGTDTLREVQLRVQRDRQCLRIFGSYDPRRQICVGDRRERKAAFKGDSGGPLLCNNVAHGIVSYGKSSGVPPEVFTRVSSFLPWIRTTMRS
In words: cell-based or functional assay.

A further series addresses Chymotrypsin. In words: cell-based or functional assay.
Another series has as its target Trypsin. As to the kind of experiment: cell-based or functional assay.
The target in another series is Plasmin. As to the kind of experiment: cell-based or functional assay.
Series [2] deals with human leukocyte elastase (HLE) (human) (UniProt P08246). As to the kind of experiment: cell-based or functional assay.
The next series deals with Thrombin. As to the kind of experiment: cell-based or functional assay.
In another series the target is Papaine. In words: cell-based or functional assay.
The target of another series is MMP-2. As to the kind of experiment: cell-based or functional assay.
Series [3] has as its target p54 protein (glycoprotein of about 54 kDa isolated from shark cartilage, serine protease inhibitor).

Sequence of UniProt P00772 (P00772 27-266): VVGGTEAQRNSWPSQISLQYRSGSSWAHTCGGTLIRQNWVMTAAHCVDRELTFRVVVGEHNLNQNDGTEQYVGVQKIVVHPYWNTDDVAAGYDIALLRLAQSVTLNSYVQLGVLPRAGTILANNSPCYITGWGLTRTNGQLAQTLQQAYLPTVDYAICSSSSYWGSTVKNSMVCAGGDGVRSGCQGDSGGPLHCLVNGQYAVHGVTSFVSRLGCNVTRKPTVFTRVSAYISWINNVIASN

As to Alpha 1-antitrypsin (AAT), the Activity (% inhibition) in series [1] worked out at 64 % inhibition; in the series with MMP-7 it was 0 % inhibition; in the series with Cathepsin D, 77 % inhibition; with Cathepsin G, 68 % inhibition; with Chymotrypsin it was 100 % inhibition; in the series with Trypsin, 94 % inhibition. In the series with Plasmin, this molecule came in with an Activity (% inhibition) of 49 % inhibition.
Turning to “p54 protein (glycoprotein of about 54 kDa isolated from shark cartilage, serine protease inhibitor)”, the Activity (% inhibition) in series [1] stood at 84 % inhibition; with MMP-7, 0 % inhibition; with Cathepsin D, 0 % inhibition; in series [2] it was 42 % inhibition; with Thrombin, 0 % inhibition; in the series with Papaine, 8 % inhibition. For the same molecule, the Activity (% inhibition) with MMP-2 is 0 % inhibition; in the series with Cathepsin G, 0 % inhibition; in the series with Chymotrypsin, 53 % inhibition; with Trypsin, 30 % inhibition; with Plasmin, 49 % inhibition.

B1: human leukocyte elastase (HLE) (protein)
chain: IVGGRRARPHAWPFMVSLQLRGGHFCGATLIAPNFVMSAAHCVANVNVRAVRVVLGAHNLSRREPTRQVFAVQRIFENGYDPVNLLNDIVILQLNGSATINANVQVAQLPAQGRRLGNGVQCLAMGWGLLGRNRGIASVLQELNVTVVTSLCRRSNVCTLVRGRQAGVCFGDSGSPLVCNGLIHGIASFVRGGCASGLYPDAFAPVAQFVNWIDSIIQ
On to B1, for which the “elastase assay (fluorescent elastin substrate)” value in series [3] was “The inhibition of elastase by the p54 protein was also validated with a human leukocyte elastase”.
